The data set in a line: yeast display, Sf9 membrane polyspecificity reagent, FACS + sequencing; frameworks hold sequencing errors. In outline: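 In a synthetic yeast display library (Saccharomyces cerevisiae BJ5465), nanobody expression was induced with galactose for 36–48 hours. FACS gates were set low and high (top ~1%) using anti-HA fluorescence for expression and streptavidin fluorescence for binding of the Sf9 membrane reagent. Each polyreactivity label is drawn from the gate of origin.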
With “QVQLVESGGGLVQAGGSLRLSCAASGRTFVANTMGWYRQAPGKEREFVAGISRRGGSTYYADSVKGRYTISRDNAKNTVYLQMNSLKPEDPAVYYCAVGTWARYRGLEYDYWGQGTQVTVSS”, the “polyreactivity (PSR sort gate)” value was “high polyreactivity”.

Turning to “QVQLVESGGGLVQAGGSLRLSCAASGRTFVDSVMGWYRQAPGKERELVAAISRSGSTYYADSVKGRFTISRDNAKNTVYLQMNSLKPEDTAVYYCAADWSFNRSSGQYGFYYWGQGTQVTVSS”, the “polyreactivity (PSR sort gate)” value is reported as “low polyreactivity”. As for “QVQLVESGGGLVQAGGSLRLSCAASGRTFVDYAMGWYRQAPGKERELVAAISSSGASTYYADSVKGRFTISRDNAKNTVYLQMNSLKPEDTAVYYCAARRHRTYGYWGQGTQVTVSS”, the entry is “high polyreactivity”; as for “QVQLVESGGGLVQAGGSLRLSCAASGRTFVEYAMGWYRQAPGKERELVAAITYSGDDTYYADSVKGRFTISRDNAKNTVYLQMNSLKPEDTAVYYCAKKRSKPISFDYWGQGTQVTVSS”, “high polyreactivity”; as for “QVQLVESGGGLVQAGGSLRLSCAASGRTFVFNAMGWYRQAPGKERELVAAISRSGGSTYYADSVKGRFTISRDNAKNTVYLQMNSLKPEDTAVYYCAADKYYLFALYEYGYWGQGTQVTVSS”, “high polyreactivity”. Then “QVQLVESGGGLVQAGGSLRLSCAASGRTFVFNGMGWYRPAPGKERELVAAINWDGGDTYYADSVKGRFTISRDNAKNTVYLQMNSLKPEDTAVYYCAAEGIFRYYTQATMEYWGQGTQVTVSS”, with “low polyreactivity”; and “QVQLVESGGGLVQAGGSLRLSCAASGRTFVGYAMGGYRQAPGQERELVANMTTSGGNTYYADSVKGRFTISRDNAKNTDYLQMNSLKPEDTAVYYCAARVYWVTRAVSTSYYYWGQGTQGTVSS”, with “high polyreactivity”; and “QVQLVESGGGLVQAGGSLRLSCAASGRTFVGYAMGWYRQAPGKERELVAAITYSGVSTYYADSVKGRFTISRDNAKNTVYLQMNSLKPEDTAVYYCAADYISVYGYEYYYWGQGTQVTVSS”, with “high polyreactivity”. As for “QVQLVESGGGLVQAGGSLRLSCAASGRTFVGYAMGWYRQAPGKERELVASITASGGRTYYADSVKGRFTISRDNAKNTVYLQMNSLKPEDTAVYYCAAYIHWSEDYWGQGTQVTVSS”, the entry is “low polyreactivity”; as for “QVQLVESGGGLVQAGGSLRLSCAASGRTFVGYSMGWYRQAPGKEREFVATITSSGRTNYADSVKGRFTISRDNAKNTVYLQMNSLKPEDTAVYYCNAVYGRFVDLRYDYWGHGTQVTVSS”, “high polyreactivity”.

In the case of “QVQLVESGGGLVQAGGSLRLSCAASGRTFVIYAMGWYRQAPGKEREFVAAISRSGGSTYYADSVKGRFTISRDNAKNTVYLQMNSLKPEDTAVYYCNTRTPYWFKSDYWGQGTQVTVSS”, the “polyreactivity (PSR sort gate)” value is reported as “low polyreactivity”. In the case of “QVQLVESGGGLVQAGGSLRLSCAASGRTFVIYARGWYRQAPGKEWALVAAINWRGGSTYYADSVKGRFTISRDNAKNTVYLQMNSLKPEDTAVYYCAADTGWWWLYDYWGQGTQVTVSS”, the “polyreactivity (PSR sort gate)” value is on record as “high polyreactivity”. Take “QVQLVESGGGLVQAGGSLRLSCAASGRTFVKNAMGWYRQAPGKERELVAAISSSGGSTYYADSVKGRFTISRDNAKNTVYLQMNSLKPEDTAVYYCNRYSRLYLTDDDYWGQGTQVTVSS”: the “polyreactivity (PSR sort gate)” value was “high polyreactivity”.

“QVQLVESGGGLVQAGGSLRLSCAASGRTFVKNNMGWYRQSPGKERELVAAISSSGGSTYYADSVKGRFTISRDNAKNSVYLHMNSLNPEDTAVYFCAVSYPYKHAGGWYAYNYWGQGTQVTVSS”: the “polyreactivity (PSR sort gate)” value is recorded as “high polyreactivity”.

For the sequence “QVQLVESGGGLVQAGGSLRLSCAASGRTFVKYAMGWYRQAPGKERELVAAISWSGGSTYYADSVKGRFTISRDNAKNTVYLQMNSLKPEDTAVYYCAAPSSRGQGRNFDYWGQGTQVTVSS”, the “polyreactivity (PSR sort gate)” value is on record as “high polyreactivity”. Then “QVQLVESGGGLVQAGGSLRLSCAASGRTFVNYAMGWYRQAPGKEREFVAAITNGGRTNYADSVKGRFTISRDNAKNTVYLQMNSLKPEDTAVYYCAARYRFGGIRRYNYWGQGTQVTVSS”, with “high polyreactivity”; and “QVQLVESGGGLVQAGGSLRLSCAASGRTFVNYAMGWYRQAPGKERELVAAITSDGSTSYADSVKGRFTISRDNAKNTVYLQMNSLKPEDTAVYFCAKDFFEHSPVSHTYSSSKYDYWGQGTQVTVSS”, with “low polyreactivity”. Then “QVQLVESGGGLVQAGGSLRLSCAASGRTFVNYTMGWDRQAPGKERELVAAIRYRDGSTYYADSVKGRFTISRDNAKNTVYLQMNSLKPEDTAVYYCNTRITQVGDYIYDYWGQGTQVTVSS”, with “low polyreactivity”.

As for “QVQLVESGGGLVQAGGSLRLSCAASGRTFVPNTMGWYRQAPGKERELVAAIRWSVGSTYYADSVKGRFTISRDNAKNTVYLQMNSLKPEDTAVYYCAAYYSRSYLRYGMDYWGQGTQVTVSS”, the “polyreactivity (PSR sort gate)” value is listed as “high polyreactivity”. For the sequence “QVQLVESGGGLVQAGGSLRLSCAASGRTFVPYAMGWYRQAPGKEREFVAAISSRVGSTYYADSVKGRFTISRDNAKNTVYLQRNSLKPEDTAVYYCNAPFKPAGFYSAWKYDYWGQGTQVTVSS”, the “polyreactivity (PSR sort gate)” value is given as “low polyreactivity”. As for “QVQLVESGGGLVQAGGSLRLSCAASGRTFVQYVMGWYRQAPGKERELVARISSGGSTFYADSVKGRFTISRDNAKNSVYLQLNSLKPEDTAVYYCAAQWTRYRRRPMDYWGQGTQVTVSS”, the entry is “high polyreactivity”; as for “QVQLVESGGGLVQAGGSLRLSCAASGRTFVRNAMGWYRQAPGKERELVAAISSSGGSTYYADSVKGRFTISRDNAKNTVYLQMNSLKPEDTAVYYCAAFRIGREYWGQGTQVTVSS”, “high polyreactivity”. Consider “QVQLVESGGGLVQAGGSLRLSCAASGRTFVRNTMGWYRQAPGKEREFVAAISRSGGNTNYADSVKGRFTISRDNAKNTVYLQMNSLKPEDTAVYYCATRAGYQVYPNKMNYWGQGTQVTVSS”, for which the “polyreactivity (PSR sort gate)” value is “high polyreactivity”. Then “QVQLVESGGGLVQAGGSLRLSCAASGRTFVSYAMGWYRPAPGKERELVAGISWSGDSTYYADSVKGRFTISRDNAKNTVYLEMNSLKPEDSAVYYCAAYGPFIYGGHHYNYWGQGTQVTVSS”, with “low polyreactivity”; and “QVQLVESGGGLVQAGGSLRLSCAASGRTFVTNAMGWYRQAPGKERELVAAISKSGGRTYYADSVKGRFTISRDNAKNTVYLQMNRLKPEDTAVYYCAADKRYLSYDYWGQGTQVTVSS”, with “high polyreactivity”.

For “QVQLVESGGGLVQAGGSLRLSCAASGRTFVTNAMGWYRQAPGKERELVAAISSGDDSTYYADSVKGRFTISRDNAKNTVYLQMNSLKPEDTAVYYCAAEGYYVDYYFYFHGFDYWGQGTQVTVSS”, the “polyreactivity (PSR sort gate)” value is reported as “high polyreactivity”. Then “QVQLVESGGGLVQAGGSLRLSCAASGRTFVTNAMGWYRQAPGKERELVAAITQRGGRTYYADSVKGRFTISRDNAKNTVYLQMNSLKPEDTAVYYCAASYYGWSARYDTLGIYEYWGQGTQVTVSS”, with “high polyreactivity”; and “QVQLVESGGGLVQAGGSLRLSCAASGRTFVTYAMGWYRQAPGKEREFVAAISRNGGSTYYADSVKGRFTISRDNAKNTVYLQMNSLKPEDTAVYYCAKGRPWYRGDYWGQGTQVTVSS”, with “low polyreactivity”; and “QVQLVESGGGLVQAGGSLRLSCAASGRTFVVNAMGWYRQAPGKERELVATIRWSGGRTYYADSVKGRFTISRDNAKNTVYLQMNSLKPEDTAVYYCAADFKGLFSSELDYWGQGTQVTVSS”, with “low polyreactivity”. As for “QVQLVESGGGLVQAGGSLRLSCAASGRTFVVYAMGWYRQAPGKERELVAAINWSGTSTYYADSVKGRFTISRDNAKNTVYLQMNSLKPEDTAVYYCAAVAGLGTYRRYGYWGQGTQVTVSS”, the entry is “high polyreactivity”.

The record behind these values is the nanobody polyreactivity screen of Harvey et al. (2022).
